Experimental findings from patent US20070065882 are described below.

The target of the data set is PKCβII in mouse brain (UniProt P68404).
PKCβII in mouse brain, sequence (P68404 other isoform, or with tags, fused parts or gaps): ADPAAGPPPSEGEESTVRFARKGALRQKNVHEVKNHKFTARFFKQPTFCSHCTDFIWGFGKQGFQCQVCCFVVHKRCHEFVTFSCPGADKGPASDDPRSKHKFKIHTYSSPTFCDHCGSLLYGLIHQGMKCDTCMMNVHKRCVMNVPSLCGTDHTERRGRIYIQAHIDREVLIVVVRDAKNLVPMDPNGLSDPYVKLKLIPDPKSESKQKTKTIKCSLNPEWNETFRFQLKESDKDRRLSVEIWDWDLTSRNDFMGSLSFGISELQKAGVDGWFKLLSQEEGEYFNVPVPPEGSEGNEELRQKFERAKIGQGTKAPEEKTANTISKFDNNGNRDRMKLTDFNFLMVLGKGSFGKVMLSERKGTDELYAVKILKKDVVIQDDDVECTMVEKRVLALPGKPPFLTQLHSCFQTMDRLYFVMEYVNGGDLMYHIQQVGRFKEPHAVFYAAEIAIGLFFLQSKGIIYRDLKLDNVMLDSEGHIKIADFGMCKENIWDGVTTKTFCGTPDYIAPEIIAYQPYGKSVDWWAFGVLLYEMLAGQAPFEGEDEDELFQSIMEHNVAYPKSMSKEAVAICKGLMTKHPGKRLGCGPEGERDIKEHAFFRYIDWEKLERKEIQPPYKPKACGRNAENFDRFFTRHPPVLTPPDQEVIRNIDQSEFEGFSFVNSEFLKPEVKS

Turning to “recombinant human AChE-R, 'readthrough' variant of acetylcholinesterase”, the “PKC activity in brain homogenates (PKC assay kit, Upstate Biotechnology)” value is given as “Note the elevation of PKC activity in the different brain regions in the AChE-R transgenics as compared to FVB/N controls”.
